From PMC2714705 (Structure (London, England : 1993), 2009) come the findings set out here.

A word on the stoichiometry N: it is the number of molecules, sites or subunits per partner or assembly.

What all share (experiment): cryo-EM structure
For data set [1], the target named is T1, P22 assembly-naïve portal, full length His-tagged gp1 (bacteriophage P22), P26744.
T1 chain: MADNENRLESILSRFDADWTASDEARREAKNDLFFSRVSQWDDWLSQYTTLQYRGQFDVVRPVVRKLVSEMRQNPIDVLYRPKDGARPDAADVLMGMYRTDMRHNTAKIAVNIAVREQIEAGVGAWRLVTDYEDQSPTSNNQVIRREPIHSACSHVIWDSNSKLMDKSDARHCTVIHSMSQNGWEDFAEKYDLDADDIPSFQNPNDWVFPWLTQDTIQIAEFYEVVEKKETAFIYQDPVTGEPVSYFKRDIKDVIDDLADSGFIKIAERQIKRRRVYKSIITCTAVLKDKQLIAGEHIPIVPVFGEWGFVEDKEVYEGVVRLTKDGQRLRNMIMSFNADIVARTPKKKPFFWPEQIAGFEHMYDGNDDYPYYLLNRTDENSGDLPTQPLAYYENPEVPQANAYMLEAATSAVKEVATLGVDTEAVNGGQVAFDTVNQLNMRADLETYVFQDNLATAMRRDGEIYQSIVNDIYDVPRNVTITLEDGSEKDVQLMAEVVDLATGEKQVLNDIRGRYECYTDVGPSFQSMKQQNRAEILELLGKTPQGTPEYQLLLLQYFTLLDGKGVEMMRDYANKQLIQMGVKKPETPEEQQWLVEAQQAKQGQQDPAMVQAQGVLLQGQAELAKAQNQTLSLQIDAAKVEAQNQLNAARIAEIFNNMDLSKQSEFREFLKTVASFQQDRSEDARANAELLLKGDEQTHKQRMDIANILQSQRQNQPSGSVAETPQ
Particulars: remark: other sources report otherwise.

The data set “cryo-EM structure” concerns the molecule itself.
For data set [2], the target named is T2, P22 portal protein gp1 in the tail machine purified from virions (bacteriophage P22, UniProt P26744 1-725).
T2 sequence (looked up): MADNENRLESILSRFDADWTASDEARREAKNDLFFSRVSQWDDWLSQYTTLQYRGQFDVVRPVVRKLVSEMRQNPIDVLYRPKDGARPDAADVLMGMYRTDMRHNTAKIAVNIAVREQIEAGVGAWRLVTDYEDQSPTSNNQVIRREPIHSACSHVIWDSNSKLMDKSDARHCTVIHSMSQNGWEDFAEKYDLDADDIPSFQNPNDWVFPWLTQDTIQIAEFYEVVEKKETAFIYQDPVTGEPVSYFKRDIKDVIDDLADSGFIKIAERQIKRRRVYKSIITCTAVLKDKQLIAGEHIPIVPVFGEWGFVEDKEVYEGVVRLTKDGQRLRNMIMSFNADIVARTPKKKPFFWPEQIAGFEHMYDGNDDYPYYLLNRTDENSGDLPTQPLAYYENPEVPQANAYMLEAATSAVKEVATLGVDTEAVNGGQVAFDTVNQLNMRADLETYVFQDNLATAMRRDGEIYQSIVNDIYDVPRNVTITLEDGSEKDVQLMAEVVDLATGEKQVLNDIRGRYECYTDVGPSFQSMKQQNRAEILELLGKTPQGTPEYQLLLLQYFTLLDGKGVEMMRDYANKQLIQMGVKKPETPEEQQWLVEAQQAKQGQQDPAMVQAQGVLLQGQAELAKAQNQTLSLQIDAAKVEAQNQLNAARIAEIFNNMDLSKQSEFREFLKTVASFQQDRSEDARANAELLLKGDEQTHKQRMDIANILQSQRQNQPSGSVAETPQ

The target in another data set is P22 gp9 tailspike (bacteriophage P22, UniProt P12528 1-667).

Where “and” joins values, the source holds several entries; their conditions need not be identical. Identical values can stand only once.

B1: P22 assembly-naïve portal, full length His-tagged gp1, P26744 1-725 (natural protein)
chain: MADNENRLESILSRFDADWTASDEARREAKNDLFFSRVSQWDDWLSQYTTLQYRGQFDVVRPVVRKLVSEMRQNPIDVLYRPKDGARPDAADVLMGMYRTDMRHNTAKIAVNIAVREQIEAGVGAWRLVTDYEDQSPTSNNQVIRREPIHSACSHVIWDSNSKLMDKSDARHCTVIHSMSQNGWEDFAEKYDLDADDIPSFQNPNDWVFPWLTQDTIQIAEFYEVVEKKETAFIYQDPVTGEPVSYFKRDIKDVIDDLADSGFIKIAERQIKRRRVYKSIITCTAVLKDKQLIAGEHIPIVPVFGEWGFVEDKEVYEGVVRLTKDGQRLRNMIMSFNADIVARTPKKKPFFWPEQIAGFEHMYDGNDDYPYYLLNRTDENSGDLPTQPLAYYENPEVPQANAYMLEAATSAVKEVATLGVDTEAVNGGQVAFDTVNQLNMRADLETYVFQDNLATAMRRDGEIYQSIVNDIYDVPRNVTITLEDGSEKDVQLMAEVVDLATGEKQVLNDIRGRYECYTDVGPSFQSMKQQNRAEILELLGKTPQGTPEYQLLLLQYFTLLDGKGVEMMRDYANKQLIQMGVKKPETPEEQQWLVEAQQAKQGQQDPAMVQAQGVLLQGQAELAKAQNQTLSLQIDAAKVEAQNQLNAARIAEIFNNMDLSKQSEFREFLKTVASFQQDRSEDARANAELLLKGDEQTHKQRMDIANILQSQRQNQPSGSVAETPQ
Consider B1, for which the stoichiometry N in data set [1] is 11 and 12.

B2: P22 gp26 tail needle (natural protein, bacteriophage P22)
chain: MADPSLNNPVVIQATRLDASILPRNVFSKSYLLYVIAQGTDVGAIAGKANEAGQGAYDAQVKNDEQDVELADHEARIKQLRIDVDDHESRITANTKAITALNVRVTTAEGEIASLQTNVSALDGRVTTAENNISALQADYVSKTATTSQSLASPLNVTTSYSVGGKKVLGARQTGWTAATGTANKGVFDADLTFAVSDTYTQSEIQAIANALITERRRTKALEDALRAHGLID
For B2, the binding result in “cryo-EM structure” is “binds”.

B3: P22 gp4 (natural protein, bacteriophage P22, UniProt P26746 1-166, looked up)
chain: MQIKTKGDLVRAALRKLGVASDATLTDVEPQSMQDAVDDLEAMMAEWYQDGKGIITGYVFSDDENPPAEGDDHGLRSSAVSAVFHNLACRIAPDYALEATAKIIATAKYGKELLYKQTAISRAKRAPYPSRMPTGSGNSFANLNEWHYFPGEQNADSTTPHDEGNG
On to B3, for which the binding result (in data set [2]; in “cryo-EM structure”; in the data set with P22 gp9 tailspike) was “binds” in each case.
